Experimental findings from PMC8389850, “The PilB-PilZ-FimX regulatory complex of the Type IV pilus from Xanthomonas citri” (PLoS Pathogens, 2021) are described below.

For assay [1], the target named is PilZ_(W69_5OHW) (Xanthomonas citri pv. citri strain 306). The assay can be described thus: other fluorescence titration.
Assay [2] has as its target PilB_(12-163) (Xanthomonas citri pv. citri strain 306). Put plainly: SEC-MALS.
Assay [3] addresses PilB_(1-190), His tag removed (Xanthomonas citri pv. citri strain 306). The assay can be described thus: SEC-MALS.
The target of assay [4] is full-length FimX (Xanthomonas citri pv. citri strain 306). The assay can be described thus: SEC-MALS; full-length proteins and complexes; silica-based WTC column 7.8/300; 50 mM Tris-HCl pH 8.0, 50 mM NaCl, 5 mM MgCl2; without and with ATPγS and/or c-di-GMP (1:2 protein to ligand).

As to FimXEAL (domain or fragment), the Kd in assay [1] amounted to 200 nM. That is a sub-micromolar value. The same measure, in the same setting: the same measure for “His-tagged PilB_(1-190) (from UniProt A0AAI7ZH88 1-190) (domain or fragment)”: less than 4.1 nM. Regarding “PilZ (XAC1133), wild type, recombinant (from UniProt A0AAI7ZDW4 1-117) (natural protein)”, the stoichiometry N in assay [2] and in assay [3] was 1 each time.

full-length FimX (natural protein) had a stoichiometry N in assay [4] of 2.
